According to patent US6034062A, “Bone morphogenetic protein (BMP)-9 compositions and their uses” (Genetics Institute, Inc., priority 1997, dated 2000):

Columns and labels:
W-20-17 = experiment: Alkaline phosphatase activity in W-20-17 osteoprogenitor cell line; assay type: cell-based; conditions: dose responsive
Protocol: W-20 cells are plated into 96 well tissue culture plates at a density of 10,000 cells per well in 200 μl of media (DME with 10% heat inactivated fetal calf serum, 2 mM glutamine and 100 U/ml+100 μg/ml streptomycin. The cells are allowed to attach overnight in a 95% air, 5% CO2 incubator at 37° C.
The 200 μl of media is removed from each well with a multichannel pipettor and replaced with an equal volume of test sample delivered in DME with 10% heat inactivated fetal calf serum, 2 mM glutamine and 1% penicillin-streptomycin. Test substances are assayed in triplicate.
The test samples and standards are allowed a 24 hour incubation period with the W-20 indicator cells. After the 24 hours, plates are removed from the 37° C. incubator and the test media are removed from the cells.
The W-20 cell layers are washed 3 times with 200 μl per well of calcium/magnesium free phosphate buffered saline and these washes are discarded.
50 μl of glass distilled water is added to each well and the assay plates are then placed on a dry ice/ethanol bath for quick freezing. Once frozen, the assay plates are removed from the dry ice/ethanol bath and thawed at 37° C. […]
The spectrophotometric absorbance for each well is read at a wavelength of 405 nanometers. […] For example, using known amounts of p-nitrophenol phosphate, absorbance values are generated.

Chang = experiment: 125I-BMP-9 binding to Chang liver cell line; conditions: iodinated CHO-derived BMP-9
Protocol: BMP-9 responsiveness in parenchymal liver cells is tested by screening four liver cell lines for their ability to bind iodinated, CHO-derived BMP-9. […] Specific binding of BMP-9 to HepG2 cells is carried out by incubating HepG2 cells grown to confluence in Dulbecco's Modified Eagle's Medium (DME) containing 10% heat-inactivated fetal calf serum (FCS) on gelatinized 6 well plates with 2 ng/ml ^125 I-BMP-9 and increasing concentrations of unlabelled BMP-9 in binding buffer (136.9 mM NaCl, 5.37 mM KCl, 1.26 mM CaCl2, 0.64 mM MgSO4, 0.34 mM Na2 HPO4, 0.44 mM KH2 PO4, 0.49 mM MgCl2, 25 mM HEPES and 0.5% BSA, pH 7.4) for 20 hours at 4° C. to achieve binding equilibrium. This incubation follows a one hour preincubation at 37° C. in binding buffer alone. For crosslinking experiments, the cells were incubated with 500 μM disuccinimidyl suberate for 20 minutes at […] following binding. Cell extracts were analyzed on SDS-PAGE. […] The curvilinear nature of the Scatchard plot indicates negative cooperativity among BMP-9 receptors or that HepG2 cells express at least two populations of BMP-9 receptors with different affinities. Crosslinking analysis on HepG2 cells with ^125 I-BMP-9 yields two binding proteins of apparent molecular weights of 54 and 80 kD. […]

primary rat hepatocytes = experiment: Primary rat hepatocyte 3H-thymidine incorporation; assay type: cell-based
Protocol: As a first indication of BMP-9 effects on confluent, serum starved HepG2 cells, cell proliferation is examined as determined by ^3 H-thymidine incorporation and cell counting. HepG2 cells are plated at […] in 96 well plates and cultured for 48 hours in DME/0.1% FCS to synchronize the cell cycle are treated for 24 hours with or without BMP-9 in the presence of 0.1% FCS. In ^3 H-thymidine incorporation assays, ^3 H-thymidine was included during the last 4 hours of treatment and cellular DNA was collected with a 96 well plate cell harvester. Proliferation was assayed by quantifying ethanol-precipitable ^3 H-thymidine incorporation by liquid scintillation counting. For cell counting assays, cells were trypsinized and counted with a hemacytometer. […] BMP-9 stimulates ^3 H-thymidine incorporation in HepG2 cells approximately five fold.
To determine if this proliferative effect of BMP-9 was unique to the HepG2 liver tumor cell line, primary rat hepatocytes were tested for effects of BMP-9 on ^3 H-thymidine incorporated as shown in FIG. 4.

liver plasma membranes = experiment: [125I]rhBMP-9 binding to liver plasma membranes; conditions: adult rat liver plasma membranes, displaceable by 100-fold excess of unlabeled rhBMP-9
Protocol: (§1) To determine potential target tissues for BMP-9, plasma membrane preparations from adult rat organs are screened for specific [^125 I]rhBMP-9 binding. Plasma membranes are prepared by the methods of Neville, J. Biophys Biochem Cytol 8:412-422 (1960) and Ray, Biochim Biophys Acta 196:1-9 (1970) with the following modifications: Fresh tissues from adult male Long-Evans rats are homogenized with 10 strokes of a teflon homogenizer. Plasma membranes are collected from discontinuous sucrose gradients at 37%/41% sucrose interface and the 41%/45% sucrose interface. Homogenization buffer and sucrose solutions are supplemented with 0.7 μg/ml leupeptin, 2 μg/ml aprotinin and 240 μg/ml pefabloc. Protein levels in plasma membrane preparations are determined by the bicinchoninic acid assay (Pierce, Rockford, Ill.) using immunoglobulin G as a standard.
(§2) BMP-9 binding is carried out by suspending plasma membranes at 30 μg/100μl in binding buffer (136.9 mM NaCl, 5.37 mM KCl, 1.26 mM CaCl2, 0.64 mM MgSO4, 0.34 mM Na2 HPO4, 0.44 mM KH2 PO4, 0.49 mM MgCl2, 25 mM HEPES and 0.5% BSA, pH 7.4) containing o.5 ng [^125 I]rhBMP-9. Binding is allowed to equilibrate by incubation for 16 h at 4° C. […]
(§3) To verify that this specific binding is of high affinity, a more complete displacement profile is determined with lung and kidney plasma membranes.

kidney plasma membranes = experiment: [125I]rhBMP-9 binding to kidney plasma membranes; design: species or system rat
Protocol: as §1, §2, §3

B1: BMP-9: recombinant human bone morphogenetic protein-9, mature amino acids #1-#110 of SEQ ID NO:9, expressed in CHO cells (protein)
chain: TRECSRSCPRTAPQRQVRAVTRRTRMAHVAAGSTLARRKRSAGAGSHCQKTSLRVNFEDIGWDSWIIAPKEYEAYECKGGCFFPLADDVTPTKHAIVQTLVHLKFPTKVG
modifications: 125I-iodinated as tracer; unlabelled BMP-9 used as the displacing ligand
Q: Which results are given for B1?
A: ED50, stimulation of alkaline phosphatase activity (W-20-17): 4 ng/mL; specific binding of 125I-BMP-9 (Chang): to some extent; 3H-thymidine incorporation (primary rat hepatocytes; confluent primary rat hepatocytes): confluent primary hepatocytes did not; 3H-thymidine incorporation (primary rat hepatocytes; subconfluent primary rat hepatocytes, 36 hours, serum-free): stimulated ^3 h-thymidine incorporation in primary hepatocytes, although not as markedly as EGF; specific [125I]rhBMP-9 binding (liver plasma membranes): evident; specific [125I]rhBMP-9 binding (kidney plasma membranes; adult rat kidney plasma membranes, displaceable by 100-fold excess of unlabeled rhBMP-9): evident; Kd (kidney plasma membranes; rat kidney plasma membranes): 0.3 nM
